T1: AtfA::6His (Aspergillus fumigatus AkuB, UniProt Q4WY05 1-555)
T1 sequence: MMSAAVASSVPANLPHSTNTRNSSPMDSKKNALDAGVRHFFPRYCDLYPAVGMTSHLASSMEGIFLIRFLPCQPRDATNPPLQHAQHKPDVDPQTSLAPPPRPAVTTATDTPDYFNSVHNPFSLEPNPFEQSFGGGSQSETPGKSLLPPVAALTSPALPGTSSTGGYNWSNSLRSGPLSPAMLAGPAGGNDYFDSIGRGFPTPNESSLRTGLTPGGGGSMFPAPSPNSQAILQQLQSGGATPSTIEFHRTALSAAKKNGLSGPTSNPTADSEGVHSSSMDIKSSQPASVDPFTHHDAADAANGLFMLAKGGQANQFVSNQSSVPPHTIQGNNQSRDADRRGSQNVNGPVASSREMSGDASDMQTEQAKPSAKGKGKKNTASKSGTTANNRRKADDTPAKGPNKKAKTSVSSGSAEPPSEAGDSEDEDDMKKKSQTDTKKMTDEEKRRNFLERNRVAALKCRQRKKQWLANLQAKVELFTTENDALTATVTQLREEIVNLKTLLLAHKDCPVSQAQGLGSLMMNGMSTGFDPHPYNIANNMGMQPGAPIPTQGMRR

B1: A-23 probe (DprA promoter) (dsDNA)
DNA 1: GGGCAGTTCAAATACAGAACGTCACAAATCTTACACA
DNA 2: GGGTGTGTAAGATTTGTGACGTTCTGTATTTGAACTG
B2: A-142 probe (DprA promoter) (dsDNA)
DNA 1: GGGCTCCCCGGCTTCTTGACGTAACCCCCAGACATGA
DNA 2: GGGTCATGTCTGGGGGTTACGTCAAGAAGCCGGGGAG
B3: PacC probe (DprB promoter, -264) (dsDNA)
DNA 1: GGGTCGATCCAGGTACCGCCAGGGGTTGATATGACAG
DNA 2: GGGCTGTCATATCAACCCCTGGCGGTACCTGGATCGA

Experiments:
AtfA::6His = target: T1, AtfA::6His; assay: EMSA
GST::PacC (30-195*) = GST::PacC (30-195*) (Aspergillus nidulans? (plasmid …, UniProt Q00202 30-195)); assay: EMSA
Sequence of GST::PacC (30-195*) (Aspergillus nidulans? (Q00202 30-195): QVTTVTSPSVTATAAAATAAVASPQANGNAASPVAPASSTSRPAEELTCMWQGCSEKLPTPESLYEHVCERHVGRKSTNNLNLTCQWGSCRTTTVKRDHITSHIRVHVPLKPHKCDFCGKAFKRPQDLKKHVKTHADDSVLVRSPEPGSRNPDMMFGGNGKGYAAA

Row | Binder | binding result (AtfA::6His) | binding result (GST::PacC (30-195*))
1 | B1 | binds | 
2 | B2 | binds | 
3 | B3 |  | binds

Source: PMC3103405
